Assay [1] deals with T1, FcγRIa extracellular domain with C-terminal His tag (human, UniProt P12314 16-292).
T1 construct: extracellular domain; soluble receptor expressed in FreeStyle293 cells, used as analyte in Biacore; also called FcgRI; 1a; not shown: His tag attached to the C terminus
As to the kind of experiment: SPR (Biacore), antibody captured on antigen peptide chip, FcγR as analyte; relative binding.

Assay [2] deals with T2, FcγRIIb extracellular domain with C-terminal His tag (human, UniProt P31994 43-217).
T2 construct: extracellular domain; soluble receptor expressed in FreeStyle293 cells, used as analyte in Biacore; also called FcgRIIb; 2b; not shown: His tag attached to the C terminus
T2 sequence (looked up): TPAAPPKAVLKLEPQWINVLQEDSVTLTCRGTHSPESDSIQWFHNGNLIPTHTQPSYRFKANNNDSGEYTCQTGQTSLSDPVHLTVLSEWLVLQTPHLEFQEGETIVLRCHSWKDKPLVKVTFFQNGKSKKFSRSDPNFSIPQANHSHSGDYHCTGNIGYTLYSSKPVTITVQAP
The description is as above.

T1 sequence (P12314 16-292): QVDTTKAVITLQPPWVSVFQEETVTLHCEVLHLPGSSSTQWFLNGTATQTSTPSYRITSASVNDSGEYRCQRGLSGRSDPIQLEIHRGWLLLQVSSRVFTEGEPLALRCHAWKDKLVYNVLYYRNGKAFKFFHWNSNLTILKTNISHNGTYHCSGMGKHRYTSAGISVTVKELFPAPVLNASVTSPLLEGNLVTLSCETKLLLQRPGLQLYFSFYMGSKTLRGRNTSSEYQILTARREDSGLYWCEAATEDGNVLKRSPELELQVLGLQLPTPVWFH

B1: GpH7-A5/GpH7-B3 variant P271_06M/GpL16-k0 (antibody, human IgG1, kappa)
heavy 1: not shown
heavy 2: not shown
light: DIVMTQSPLSLPVTPGEPASISCQASESLVHSNRNTYLHWYLQKPGQSPQLLIYKVSNRFSGVPDRFSGSGSGTDFTLKISRVEAEDVGVYYCSQNTHVPPTFGQGTKVEIERTVAAPSVFIFPPSDEQLKSGTASVVCLLNNFYPREAKVQWKVDNALQSGNSQESVTEQDSKDSTYSLSSTLTLSKADYEKHKVYACEVTHQGLSSPVTKSFNRGEC
notes: heterodimerized anti-glypican-3 IgG1; alteration in the GpH7-B3 chain only; also called He Ab
Take B1: the He/Con_1a in assay [1] was 102 % of control GpH7-A5/GpH7-B3/GpL16-k0 (=100). The He/Con_2b in assay [2] was 77.5 % of control GpH7-A5/GpH7-B3/GpL16-k0 (=100).

B2: GpH7-A5/GpH7-B3 variant P271_20W/GpL16-k0 (antibody, human IgG1, kappa)
heavy 1: not shown
heavy 2: not shown
light: DIVMTQSPLSLPVTPGEPASISCQASESLVHSNRNTYLHWYLQKPGQSPQLLIYKVSNRFSGVPDRFSGSGSGTDFTLKISRVEAEDVGVYYCSQNTHVPPTFGQGTKVEIERTVAAPSVFIFPPSDEQLKSGTASVVCLLNNFYPREAKVQWKVDNALQSGNSQESVTEQDSKDSTYSLSSTLTLSKADYEKHKVYACEVTHQGLSSPVTKSFNRGEC
notes: as for B1
Turning to B2, the He/Con_1a in assay [1] is 103 % of control GpH7-A5/GpH7-B3/GpL16-k0 (=100). Further, the He/Con_2b in assay [2] is 58.1 % of control GpH7-A5/GpH7-B3/GpL16-k0 (=100).

B3: GpH7-A5/GpH7-B3 variant Q295_02A/GpL16-k0 (antibody, human IgG1, kappa)
heavy 1: not shown
heavy 2: not shown
light: DIVMTQSPLSLPVTPGEPASISCQASESLVHSNRNTYLHWYLQKPGQSPQLLIYKVSNRFSGVPDRFSGSGSGTDFTLKISRVEAEDVGVYYCSQNTHVPPTFGQGTKVEIERTVAAPSVFIFPPSDEQLKSGTASVVCLLNNFYPREAKVQWKVDNALQSGNSQESVTEQDSKDSTYSLSSTLTLSKADYEKHKVYACEVTHQGLSSPVTKSFNRGEC
notes: as for B1
For the molecule B3, the He/Con_1a in assay [1] is 104 % of control GpH7-A5/GpH7-B3/GpL16-k0 (=100). In addition, the He/Con_2b in assay [2] is 79.7 % of control GpH7-A5/GpH7-B3/GpL16-k0 (=100).

B4: GpH7-A5/GpH7-B3 variant Q295_05P/GpL16-k0 (antibody, human IgG1, kappa)
heavy 1: not shown
heavy 2: not shown
light: DIVMTQSPLSLPVTPGEPASISCQASESLVHSNRNTYLHWYLQKPGQSPQLLIYKVSNRFSGVPDRFSGSGSGTDFTLKISRVEAEDVGVYYCSQNTHVPPTFGQGTKVEIERTVAAPSVFIFPPSDEQLKSGTASVVCLLNNFYPREAKVQWKVDNALQSGNSQESVTEQDSKDSTYSLSSTLTLSKADYEKHKVYACEVTHQGLSSPVTKSFNRGEC
notes: as for B1
As for B4, in assay [1], the He/Con_1a is 103 % of control GpH7-A5/GpH7-B3/GpL16-k0 (=100). The He/Con_2b in assay [2] is 67.5 % of control GpH7-A5/GpH7-B3/GpL16-k0 (=100).

B5: GpH7-A5/GpH7-B3 variant Q295_01G/GpL16-k0 (antibody, human IgG1, kappa)
heavy 1: not shown
heavy 2: not shown
light: DIVMTQSPLSLPVTPGEPASISCQASESLVHSNRNTYLHWYLQKPGQSPQLLIYKVSNRFSGVPDRFSGSGSGTDFTLKISRVEAEDVGVYYCSQNTHVPPTFGQGTKVEIERTVAAPSVFIFPPSDEQLKSGTASVVCLLNNFYPREAKVQWKVDNALQSGNSQESVTEQDSKDSTYSLSSTLTLSKADYEKHKVYACEVTHQGLSSPVTKSFNRGEC
notes: as for B1
Regarding B5, the He/Con_1a in assay [1] is 97.6 % of control GpH7-A5/GpH7-B3/GpL16-k0 (=100). In addition, the He/Con_2b in assay [2] was 46 % of control GpH7-A5/GpH7-B3/GpL16-k0 (=100).

B6: GpH7-A5/GpH7-B3 variant Q295_03V/GpL16-k0 (antibody, human IgG1, kappa)
heavy 1: not shown
heavy 2: not shown
light: DIVMTQSPLSLPVTPGEPASISCQASESLVHSNRNTYLHWYLQKPGQSPQLLIYKVSNRFSGVPDRFSGSGSGTDFTLKISRVEAEDVGVYYCSQNTHVPPTFGQGTKVEIERTVAAPSVFIFPPSDEQLKSGTASVVCLLNNFYPREAKVQWKVDNALQSGNSQESVTEQDSKDSTYSLSSTLTLSKADYEKHKVYACEVTHQGLSSPVTKSFNRGEC
notes: as for B1
With B6, the He/Con_1a in assay [1] was 104 % of control GpH7-A5/GpH7-B3/GpL16-k0 (=100). In addition, the He/Con_2b in assay [2] is 75.7 % of control GpH7-A5/GpH7-B3/GpL16-k0 (=100).

B7: GpH7-A5/GpH7-B3 variant Q295_09D/GpL16-k0 (antibody, human IgG1, kappa)
heavy 1: not shown
heavy 2: not shown
light: DIVMTQSPLSLPVTPGEPASISCQASESLVHSNRNTYLHWYLQKPGQSPQLLIYKVSNRFSGVPDRFSGSGSGTDFTLKISRVEAEDVGVYYCSQNTHVPPTFGQGTKVEIERTVAAPSVFIFPPSDEQLKSGTASVVCLLNNFYPREAKVQWKVDNALQSGNSQESVTEQDSKDSTYSLSSTLTLSKADYEKHKVYACEVTHQGLSSPVTKSFNRGEC
notes: as for B1
Take B7: the He/Con_1a in assay [1] was 100 % of control GpH7-A5/GpH7-B3/GpL16-k0 (=100). Further, the He/Con_2b in assay [2] is 60.8 % of control GpH7-A5/GpH7-B3/GpL16-k0 (=100).

B8: GpH7-A5/GpH7-B3 variant P329_02A/GpL16-k0 (antibody, human IgG1, kappa)
heavy 1: not shown
heavy 2: not shown
light: DIVMTQSPLSLPVTPGEPASISCQASESLVHSNRNTYLHWYLQKPGQSPQLLIYKVSNRFSGVPDRFSGSGSGTDFTLKISRVEAEDVGVYYCSQNTHVPPTFGQGTKVEIERTVAAPSVFIFPPSDEQLKSGTASVVCLLNNFYPREAKVQWKVDNALQSGNSQESVTEQDSKDSTYSLSSTLTLSKADYEKHKVYACEVTHQGLSSPVTKSFNRGEC
notes: as for B1
Turning to B8, the He/Con_1a in assay [1] is 102 % of control GpH7-A5/GpH7-B3/GpL16-k0 (=100). Also, the He/Con_2b in assay [2] was 40.5 % of control GpH7-A5/GpH7-B3/GpL16-k0 (=100).

B9: GpH7-A5/GpH7-B3 variant P271_15Y/GpL16-k0 (antibody, human IgG1, kappa)
heavy 1: not shown
heavy 2: not shown
light: DIVMTQSPLSLPVTPGEPASISCQASESLVHSNRNTYLHWYLQKPGQSPQLLIYKVSNRFSGVPDRFSGSGSGTDFTLKISRVEAEDVGVYYCSQNTHVPPTFGQGTKVEIERTVAAPSVFIFPPSDEQLKSGTASVVCLLNNFYPREAKVQWKVDNALQSGNSQESVTEQDSKDSTYSLSSTLTLSKADYEKHKVYACEVTHQGLSSPVTKSFNRGEC
notes: as for B1
In the case of B9, the He/Con_1a in assay [1] was 103 % of control GpH7-A5/GpH7-B3/GpL16-k0 (=100). Besides, in assay [2], the He/Con_2b was 52.3 % of control GpH7-A5/GpH7-B3/GpL16-k0 (=100).

B10: GpH7-A5/GpH7-B3 variant Q295_07I/GpL16-k0 (antibody, human IgG1, kappa)
heavy 1: not shown
heavy 2: not shown
light: DIVMTQSPLSLPVTPGEPASISCQASESLVHSNRNTYLHWYLQKPGQSPQLLIYKVSNRFSGVPDRFSGSGSGTDFTLKISRVEAEDVGVYYCSQNTHVPPTFGQGTKVEIERTVAAPSVFIFPPSDEQLKSGTASVVCLLNNFYPREAKVQWKVDNALQSGNSQESVTEQDSKDSTYSLSSTLTLSKADYEKHKVYACEVTHQGLSSPVTKSFNRGEC
notes: as for B1
On to B10, for which the He/Con_1a in assay [1] is 103 % of control GpH7-A5/GpH7-B3/GpL16-k0 (=100). In addition, the He/Con_2b in assay [2] was 84.3 % of control GpH7-A5/GpH7-B3/GpL16-k0 (=100).

B11: GpH7-A5/GpH7-B3 variant P329_01G/GpL16-k0 (antibody, human IgG1, kappa)
heavy 1: not shown
heavy 2: not shown
light: DIVMTQSPLSLPVTPGEPASISCQASESLVHSNRNTYLHWYLQKPGQSPQLLIYKVSNRFSGVPDRFSGSGSGTDFTLKISRVEAEDVGVYYCSQNTHVPPTFGQGTKVEIERTVAAPSVFIFPPSDEQLKSGTASVVCLLNNFYPREAKVQWKVDNALQSGNSQESVTEQDSKDSTYSLSSTLTLSKADYEKHKVYACEVTHQGLSSPVTKSFNRGEC
notes: as for B1
Consider B11, for which, in assay [1], the He/Con_1a is 101 % of control GpH7-A5/GpH7-B3/GpL16-k0 (=100). The He/Con_2b in assay [2] was 41.7 % of control GpH7-A5/GpH7-B3/GpL16-k0 (=100).

B12: GpH7-A5/GpH7-B3 variant P271_16H/GpL16-k0 (antibody, human IgG1, kappa)
heavy 1: not shown
heavy 2: not shown
light: DIVMTQSPLSLPVTPGEPASISCQASESLVHSNRNTYLHWYLQKPGQSPQLLIYKVSNRFSGVPDRFSGSGSGTDFTLKISRVEAEDVGVYYCSQNTHVPPTFGQGTKVEIERTVAAPSVFIFPPSDEQLKSGTASVVCLLNNFYPREAKVQWKVDNALQSGNSQESVTEQDSKDSTYSLSSTLTLSKADYEKHKVYACEVTHQGLSSPVTKSFNRGEC
notes: as for B1
Consider B12, for which the He/Con_1a in assay [1] was 102 % of control GpH7-A5/GpH7-B3/GpL16-k0 (=100). Moreover, the He/Con_2b in assay [2] was 67.9 % of control GpH7-A5/GpH7-B3/GpL16-k0 (=100).

B13: GpH7-A5/GpH7-B3 variant P271_07I/GpL16-k0 (antibody, human IgG1, kappa)
heavy 1: not shown
heavy 2: not shown
light: DIVMTQSPLSLPVTPGEPASISCQASESLVHSNRNTYLHWYLQKPGQSPQLLIYKVSNRFSGVPDRFSGSGSGTDFTLKISRVEAEDVGVYYCSQNTHVPPTFGQGTKVEIERTVAAPSVFIFPPSDEQLKSGTASVVCLLNNFYPREAKVQWKVDNALQSGNSQESVTEQDSKDSTYSLSSTLTLSKADYEKHKVYACEVTHQGLSSPVTKSFNRGEC
notes: as for B1
B13: the He/Con_1a in assay [1] is 102 % of control GpH7-A5/GpH7-B3/GpL16-k0 (=100). For the same molecule, the He/Con_2b in assay [2] is 76.8 % of control GpH7-A5/GpH7-B3/GpL16-k0 (=100).

B14: GpH7-A5/GpH7-B3 variant Q295_04F/GpL16-k0 (antibody, human IgG1, kappa)
heavy 1: not shown
heavy 2: not shown
light: DIVMTQSPLSLPVTPGEPASISCQASESLVHSNRNTYLHWYLQKPGQSPQLLIYKVSNRFSGVPDRFSGSGSGTDFTLKISRVEAEDVGVYYCSQNTHVPPTFGQGTKVEIERTVAAPSVFIFPPSDEQLKSGTASVVCLLNNFYPREAKVQWKVDNALQSGNSQESVTEQDSKDSTYSLSSTLTLSKADYEKHKVYACEVTHQGLSSPVTKSFNRGEC
notes: as for B1
For B14, the He/Con_1a in assay [1] was 102 % of control GpH7-A5/GpH7-B3/GpL16-k0 (=100). Moreover, the He/Con_2b in assay [2] is 64.7 % of control GpH7-A5/GpH7-B3/GpL16-k0 (=100).

These data come from patent US20180155451A1 (published 2018).
